In PMC7878818, “Structural mechanism of bivalent histone H3K4me3K9me3 recognition by the Spindlin1/C11orf84 complex in rRNA transcription activation” (Nature Communications, 2021):
Square brackets hold non-standard residues; d marks the D form. Ends that are not written are not given here. Me3 = trimethyl group on lysine (trimethyl-lysine); Arg(Me2a) = CN(C)C(=N)NCCC[C@H](N)C(=O)O; Lys(Me3) = C[N+](C)(C)CCCC[C@H](N)C(=O)O

Legend:
Conditions in all cases: both partners purified
Spindlin1 (aa: 50–262) [1] = target: T1, Spindlin1 (aa: 50–262) (human, UniProt Q9Y657 50-262); assay: anion-exchange chromatography; co-expressed Spindlin1 (aa 50-262) and C11orf84 (aa 219-305); SDS-PAGE of the peak fraction
T1 construct: The methods describe only co-expression plasmids with C11orf84; also called Spindlin1 alone

Spindlin1 (aa: 50–262) [2] = target: T1, Spindlin1 (aa: 50–262); assay: crystal structure; 1:1.5 molar ratio of Spindlin1 (aa 50-262)/C11orf84 (aa 253-295) binary complex and H3K4me3K9me3 (A1-G12) peptide; hanging drop, 291 K; 1.60 Å
Spindlin4 = target: T2, Spindlin4 (human); assay: ITC; 25 °C, MicroCal ITC200; 20 mM HEPES pH 7.5, 150 mM NaCl; 0.8 mM H3 peptide injected into 50 μM protein or complex in the sample cell
T2 construct: human Spindlin4; Construct, host and purification of the Spindlin4 used for ITC are told nowhere
T2 chain: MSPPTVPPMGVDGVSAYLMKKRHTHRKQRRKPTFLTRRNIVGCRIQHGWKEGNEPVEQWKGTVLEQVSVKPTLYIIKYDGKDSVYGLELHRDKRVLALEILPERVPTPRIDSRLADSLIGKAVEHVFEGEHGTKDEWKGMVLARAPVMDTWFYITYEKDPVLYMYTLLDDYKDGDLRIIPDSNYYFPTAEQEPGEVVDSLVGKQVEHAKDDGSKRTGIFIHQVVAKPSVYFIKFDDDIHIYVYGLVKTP

Spindlin1 (aa: 50-262) = target: T3, Spindlin1 (aa: 50-262) (human); assay: as above
T3 construct: for the ITC of 'Spindlin1' alone the limits are not restated

Spindlin1 (aa: 50–262) [3] = target: T1, Spindlin1 (aa: 50–262); assay: ITC; 25 °C, MicroCal ITC200; 20 mM HEPES pH 7.5, 150 mM NaCl; 50 μM Spindlin1 or Spindlin1/C11orf84 complex in the cell, 0.8 mM peptide injected
[4] = target: T4, Spindlin1 (aa: 50–262)/C11orf84 (aa: 253–295) binary complex (human, UniProt Q9Y657 50-262; Q9BUA3 253-295); assay: crystal structure; 1:1.5 molar ratio of Spindlin1 (aa 50-262)/C11orf84 (aa 253-295) binary complex and H3K4me3K9me3 (A1-G12) peptide; hanging drop, 291 K; 1.60 Å
T4 construct: This binary complex was mixed with the H3K4me3K9me3 (A1-G12) peptide for crystallisation; also called Spindlin1/C11orf84
T4 sequence (Q9Y657 50-262, one chain of several): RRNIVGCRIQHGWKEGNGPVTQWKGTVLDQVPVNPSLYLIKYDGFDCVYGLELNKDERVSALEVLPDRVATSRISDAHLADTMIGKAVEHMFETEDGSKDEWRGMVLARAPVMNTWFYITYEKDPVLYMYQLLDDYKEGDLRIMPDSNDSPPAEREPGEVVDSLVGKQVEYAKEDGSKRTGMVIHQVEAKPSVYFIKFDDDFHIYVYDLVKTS

T3 sequence (chain, as listed by the source): as the sequence (Q9Y657 50-262, one chain of several) above
T1 sequence (Q9Y657 50-262): as the sequence (Q9Y657 50-262, one chain of several) above

B1: C11orf84 (aa: 219–305) (domain or fragment, human, UniProt Q9BUA3 219-305, looked up)
chain: WKEPPGEEPVRKKRGRPMTKNLDPDPEPPSPDSPTETFAAPAEVRHFTDGSFPAGFVLQLFSHTQLRGPDSKDSPKDREVAEGGLPR
Q: Does B1 bind (Spindlin1 (aa: 50–262) [1])?
A: binds

B2: C11orf84 (aa: 253–295) (domain or fragment, human, UniProt Q9BUA3 253-295, looked up)
chain: TETFAAPAEVRHFTDGSFPAGFVLQLFSHTQLRGPDSKDSPKD
notes: T255-Q283 defined in the electron density; The cloning of this fragment is not described; It is named only as part of the binary complex used for crystallisation; also called C11orf84 fragment; C11orf84 segment
Q: Does B2 bind (Spindlin1 (aa: 50–262) [2])?
A: binds

B3: H3K4me3K9me3 peptide, H3 (1-12) (peptide)
peptide: ARTK(Me3)QTARK(Me3)STG
notes: histone H3 N-terminal tail, residues 1-12; also called H3K4me3K9me3 (A1-G12) peptide
Q: How did the Kd (Spindlin4) turn out when B3 was run?
A: 41 ± 5 nM

Q: What about the “stoichiometry N” value (Spindlin1 (aa: 50-262)) of the same binder?
A: 1.04

B4: H3K4me3R8me2a peptide (peptide)
chain: ART[Lys(Me3)]QTA[Arg(Me2a)]KSTG
Q: How did the “fold by which the affinity for H3K4me3K9me3 is higher than for this peptide” value (Spindlin1 (aa: 50–262) [3]) turn out when B4 was run?
A: ~4 fold

B5: H3K4me3K9me3 (A1-G12) peptide (peptide, UniProt P68431 2-13, looked up)
peptide: ARTK(Me3)QTARK(Me3)STG
notes: histone H3 residues A1-G12; This is the peptide of the crystal structure; also called H3K4me3K9me3 peptide; methyl histone peptide
Q: Does B5 bind (Spindlin1 (aa: 50–262) [2])?
A: binds

Q: Does B5 bind [4]?
A: binds

B6: H3K4me3R8me2a peptide, H3 (1-12) (peptide)
peptide: ARTK(Me3)QTAR(asymmetric Me2)KSTG
notes: histone H3 N-terminal tail, residues 1-12
Q: Which Kd (Spindlin1 (aa: 50-262)) does the source give for B6 here?
A: 170 nM

Q: What about the “stoichiometry N” value (Spindlin1 (aa: 50-262)) of the same binder?
A: 1.02
